Experimental data reported in publication PMC11574045, “A cofactor-induced repressive type of transcription factor condensation can be induced by synthetic peptides to suppress tumorigenesis” (The EMBO Journal, 2024).

Tested on: HEK293FT cells transfected with TF library
Experiment: Screening of TF condensates based on fluorescent puncta
Type: cell-based
Conditions: Figure 1B numerical data; TF library screen, one value per transcriptional factor
Procedure, shortened: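 HEK293FT cells were reverse-transfected with Flag- or GAL4-tagged TF plasmids (1.6 μg/ml, PEI). After 60 h, cells were cultured 12 h with or without glucose, then fixed and immunostained with anti-Flag or anti-GAL4 and Alexa 488 secondaries. Fluorescent puncta were imaged over fifty random fields per well by high-content imaging.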

Row | Molecule | Z score of condensed fraction
1 | RXRA (protein, UniProt P19793 1-462, looked up) Retinoic acid receptor …: MDTKHFLPLDFSTQVNSSLTSPTGRGSMAAPSLHPSLGPGIGSPGQLHSPISTLSSPINGMGPPFSVISSPMGPHSMSVPTTPTLGFSTGSPQLSSPMNPVSSSEDIKPPLGLNGVLKVPAHPSGNMASFTKHICAICGDRSSGKHYGVYSCEGCKGFFKRTVRKDLTYTCRDNKDCLIDKRQRNRCQYCRYQKCLAMGMKREAVQEERQRGKDRNENEVESTSSANEDMPVERILEAELAVEPKTETYVEANMGLNPSSPNDPVTNICQAADKQLFTLVEWAKRIPHFSELPLDDQVILLRAGWNELLIASFSHRSIAVKDGILLATGLHVHRNSAHSAGVGAIFDRVLTELVSKMRDMQMDKTELGCLRAIVLFNPDSKGLSNPAEVEALREKVYASLEAYCKHKYPEQPGRFAKLLLRLPALRSIGLKCLEHLFFFKLIGDTPIDTFLMEMLEAPHQMT | -0.874
2 | RSF1 (protein, UniProt Q96T23 1-1441, looked up) Remodeling and spacing factor …: MATAAAAAAVMAPPGCPGSCPNFAVVCSFLERYGPLLDLPELPFPELERVLQAPPPDVGNGEVPKELVELHLKLMRKIGKSVTADRWEKYLIKICQEFNSTWAWEMEKKGYLEMSVECKLALLKYLCECQFDDNLKFKNIINEEDADTMRLQPIGRDKDGLMYWYQLDQDHNVRMYIEEQDDQDGSSWKCIVRNRNELAETLALLKAQIDPVLLKNSSQQDNSSRESPSLEDEETKKEEETPKQEEQKESEKMKSEEQPMDLENRSTANVLEETTVKKEKEDEKELVKLPVIVKLEKPLPENEEKKIIKEESDSFKENVKPIKVEVKECRADPKDTKSSMEKPVAQEPERIEFGGNIKSSHEITEKSTEETEKLKNDQQAKIPLKKREIKLSDDFDSPVKGPLCKSVTPTKEFLKDEIKQEEETCKRISTITALGHEGKQLVNGEVSDERVAPNFKTEPIETKFYETKEESYSPSKDRNIITEGNGTESLNSVITSMKTGELEKETAPLRKDADSSISVLEIHSQKAQIEEPDPPEMETSLDSSEMAKDLSSKTALSSTESCTMKGEEKSPKTKKDKRPPILECLEKLEKSKKTFLDKDAQRLSPIPEEVPKSTLESEKPGSPEAAETSPPSNIIDHCEKLASEKEVVECQSTSTVGGQSVKKVDLETLKEDSEFTKVEMDNLDNAQTSGIEEPSETKGSMQKSKFKYKLVPEEETTASENTEITSERQKEGIKLTIRISSRKKKPDSPPKVLEPENKQEKTEKEEEKTNVGRTLRRSPRISRPTAKVAEIRDQKADKKRGEGEDEVEEESTALQKTDKKEILKKSEKDTNSKVSKVKPKGKVRWTGSRTRGRWKYSSNDESEGSGSEKSSAASEEEEEKESEEAILADDDEPCKKCGLPNHPELILLCDSCDSGYHTACLRPPLMIIPDGEWFCPPCQHKLLCEKLEEQLQDLDVALKKKERAERRKERLVYVGISIENIIPPQEPDFSEDQEEKKKDSKKSKANLLERRSTRTRKCISYRFDEFDEAIDEAIEDDIKEADGGGVGRGKDISTITGHRGKDISTILDEERKENKRPQRAAAARRKKRRRLNDLDSDSNLDEEESEDEFKISDGSQDEFVVSDENPDESEEDPPSNDDSDTDFCSRRLRRHPSRPMRQSRRLRRKTPKKKYSDDDEEEESEENSRDSESDFSDDFSDDFVETRRRRSRRNQKRQINYKEDSESDGSQKSLRRGKEIRRVHKRRLSSSESEESYLSKNSEDDELAKESKRSVRKRGRSTDEYSEADEEEEEEEGKPSRKRLHRIETDEEESCDNAHGDANQPARDSQPRVLPSEQESTKKPYRIESDEEEDFENVGKVGSPLDYSLVDLPSTNGQSPGKAIENLIGKPTEKSQTPKDNSTASASLASNGTSGGQEAGAPEEEEDELLRVTDLVDYVCNSEQL | -1.08
3 | RUNX3 (protein, UniProt Q13761 1-415, looked up) Runt-related transcription …: MRIPVDPSTSRRFTPPSPAFPCGGGGGKMGENSGALSAQAAVGPGGRARPEVRSMVDVLADHAGELVRTDSPNFLCSVLPSHWRCNKTLPVAFKVVALGDVPDGTVVTVMAGNDENYSAELRNASAVMKNQVARFNDLRFVGRSGRGKSFTLTITVFTNPTQVATYHRAIKVTVDGPREPRRHRQKLEDQTKPFPDRFGDLERLRMRVTPSTPSPRGSLSTTSHFSSQPQTPIQGTSELNPFSDPRQFDRSFPTLPTLTESRFPDPRMHYPGAMSAAFPYSATPSGTSISSLSVAGMPATSRFHHTYLPPPYPGAPQNQSGPFQANPSPYHLYYGTSSGSYQFSMVAGSSSGGDRSPTRMLASCTSSAASVAAGNLMNPSLGGQSDGVEADGSHSNSPTALSTPGRMDEAVWRPY | -0.4732
4 | BBX (protein, UniProt Q8WY36 1-941, looked up) HMG box transcription factor …: MKGSNRNKDHSAEGEGVGKRPKRKCLQWHPLLAKKLLDFSEEEEEEDEEEDIDKVQLLGADGLEQDVGETEDDESPEQRARRPMNAFLLFCKRHRSLVRQEHPRLDNRGATKILADWWAVLDPKEKQKYTDMAKEYKDAFMKANPGYKWCPTTNKPVKSPTPTVNPRKKLWAFPSDSSRDLPSPKKAKTEEMPQLNFGMADPTQMGGLSMLLLAGEHALGTPEVSSGTCRPDVSESPELRQKSPLFQFAEISSSTSHSDASTKQCQTSALFQFAEISSNTSQLGGAEPVKRCGKSALFQLAEMCLASEGMKMEESKLIKAKESDGGRIKELEKGKEEKEIKMEKTDETRLQKEAEFEKSAKENLRDSKELRNFEALQIDDIMAIKMEDPKEIRKEELEEDHKCSHFPDFSYSASSKIIISDVPSRKDHMCHPHGIMIIEDPAALNKPEKLKKKKKKSKMDRHGNDKSTPKKTCKKRQSSESDIESVIYTIEAVAKGDWGIEKLGDTPRKKVRTSSSGKGSILDAKPPKKKVKSREKKMSKEKSSDTTKESRPPDFISISASKNISGETPEGIKAEPLTPMEDALPPSLSGQAKPEDSDCHRKIETCGSRKSERSCKGALYKTLVSEGMLTSLRANVDRGKRSSGKGNSSDHEGCWNEESWTFSQSGTSGSKKFKKTKPKEDCLLGSAKLDEEFEKKFNSLPQYSPVTFDRKCVPVPRKKKKTGNVSSEPTKTSKGPFQSQKKNLFHKIVSKYKHKKEKPNVPEKGSGDKWSNKQLFLDAIHPTEAIFSEDRNTMEPVHKVKNIPSIFNTPEPTTTQEPLVGSQKRKARKTKITHLVRTADGRVSPAGGTLDDKPKEQLQRSLPKATETDCNDKCSHNTEVGETRSSTPEMPAVSAFFSLAALAEVAAMENVHRGQRSTPLTHDGQPKEMPQAPVLISCADQ | 1.56
5 | RYBP (protein, UniProt Q8N488 1-228, looked up) RING1 and YY1-binding protein: MTMGDKKSPTRPKRQAKPAADEGFWDCSVCTFRNSAEAFKCSICDVRKGTSTRKPRINSQLVAQQVAQQYATPPPPKKEKKEKVEKQDKEKPEKDKEISPSVTKKNTNKKTKPKSDILKDPPSEANSIQSANATTKTSETNHTSRPRLKNVDRSTAQQLAVTVGNVTVIITDFKEKTRSSSTSSSTVTSSAGSEQQNQSSSGSESTDKGSSRSSTPKGDMSAVNDESF | -0.5834
6 | SCAND1 (protein, UniProt P57086 1-179, looked up) SCAN domain-containing …: MAATEPILAATGSPAAVPPEKLEGAGSSSAPERNCVGSSLPEASPPAPEPSSPNAAVPEAIPTPRAAASAALELPLGPAPVSVAPQAEAEARSTPGPAGSRLGPETFRQRFRQFRYQDAAGPREAFRQLRELSRQWLRPDIRTKEQIVEMLVQEQLLAILPEAARARRIRRRTDVRITG | -0.8992
7 | SALL1 (protein, UniProt Q9NSC2 1-1324, looked up) Sal-like protein 1: MSRRKQAKPQHFQSDPEVASLPRRDGDTEKGQPSRPTKSKDAHVCGRCCAEFFELSDLLLHKKNCTKNQLVLIVNENPASPPETFSPSPPPDNPDEQMNDTVNKTDQVDCSDLSEHNGLDREESMEVEAPVANKSGSGTSSGSHSSTAPSSSSSSSSSSGGGGSSSTGTSAITTSLPQLGDLTTLGNFSVINSNVIIENLQSTKVAVAQFSQEARCGGASGGKLAVPALMEQLLALQQQQIHQLQLIEQIRHQILLLASQNADLPTSSSPSQGTLRTSANPLSTLSSHLSQQLAAAAGLAQSLASQSASISGVKQLPPIQLPQSSSGNTIIPSNSGSSPNMNILAAAVTTPSSEKVASSAGASHVSNPAVSSSSSPAFAISSLLSPASNPLLPQQASANSVFPSPLPNIGTTAEDLNSLSALAQQRKSKPPNVTAFEAKSTSDEAFFKHKCRFCAKVFGSDSALQIHLRSHTGERPFKCNICGNRFSTKGNLKVHFQRHKEKYPHIQMNPYPVPEHLDNIPTSTGIPYGMSIPPEKPVTSWLDTKPVLPTLTTSVGLPLPPTLPSLIPFIKTEEPAPIPISHSATSPPGSVKSDSGGPESATRNLGGLPEEAEGSTLPPSGGKSEESGMVTNSVPTASSSVLSSPAADCGPAGSATTFTNPLLPLMSEQFKAKFPFGGLLDSAQASETSKLQQLVENIDKKATDPNECIICHRVLSCQSALKMHYRTHTGERPFKCKICGRAFTTKGNLKTHYSVHRAMPPLRVQHSCPICQKKFTNAVVLQQHIRMHMGGQIPNTPVPDSYSESMESDTGSFDEKNFDDLDNFSDENMEDCPEGSIPDTPKSADASQDSLSSSPLPLEMSSIAALENQMKMINAGLAEQLQASLKSVENGSIEGDVLTNDSSSVGGDMESQSAGSPAISESTSSMQALSPSNSTQEFHKSPSIEEKPQRAVPSEFANGLSPTPVNGGALDLTSSHAEKIIKEDSLGILFPFRDRGKFKNTACDICGKTFACQSALDIHYRSHTKERPFICTVCNRGFSTKGNLKQHMLTHQMRDLPSQLFEPSSNLGPNQNSAVIPANSLSSLIKTEVNGFVHVSPQDSKDTPTSHVPSGPLSSSATSPVLLPALPRRTPKQHYCNTCGKTFSSSSALQIHERTHTGEKPFACTICGRAFTTKGNLKVHMGTHMWNSTPARRGRRLSVDGPMTFLGGNPVKFPEMFQKDLAARSGSGDPSSFWNQYAAALSNGLAMKANEISVIQNGGIPPIPGSLGSGNSSPVSGLTGNLERLQNSEPNAPLAGLEKMASSENGTNFRFTRFVEDSKEIVTS | -0.9814
8 | SCRT1 (protein, UniProt Q99M85 1-348, looked up) Transcriptional repressor …: MPRSFLVKKVKLDTFSSADLDSSYGRARSDLGVRLQDKGYLSDYVGPASVYDGDAEAALLKGPSPEPMYAAAVRGELGPAASGSAPPPTPRPELATAAGGYINGDAAVSEGYAADAFFITDGRSRRKAANANAAAAPSTASVAAPDSDAGGGGGPGTRGSGSGSASRGGTRVGAGTEARAGSGATGAGGRHACGECGKTYATSSNLSRHKQTHRSLDSQLARRCPTCGKVYVSMPAMAMHLLTHDLRHKCGVCGKAFSRPWLLQGHMRSHTGEKPFGCAHCGKAFADRSNLRAHMQTHSAFKHFQCKRCKKSFALKSYLNKHYESACFKGGASGPATPAPPQLSPVQA | 0.5906
9 | RXRG (protein, UniProt P48443 1-463, looked up) Retinoic acid receptor …: MYGNYSHFMKFPAGYGGSPGHTGSTSMSPSAALSTGKPMDSHPSYTDTPVSAPRTLSAVGTPLNALGSPYRVITSAMGPPSGALAAPPGINLVAPPSSQLNVVNSVSSSEDIKPLPGLPGIGNMNYPSTSPGSLVKHICAICGDRSSGKHYGVYSCEGCKGFFKRTIRKDLIYTCRDNKDCLIDKRQRNRCQYCRYQKCLVMGMKREAVQEERQRSRERAESEAECATSGHEDMPVERILEAELAVEPKTESYGDMNMENSTNDPVTNICHAADKQLFTLVEWAKRIPHFSDLTLEDQVILLRAGWNELLIASFSHRSVSVQDGILLATGLHVHRSSAHSAGVGSIFDRVLTELVSKMKDMQMDKSELGCLRAIVLFNPDAKGLSNPSEVETLREKVYATLEAYTKQKYPEQPGRFAKLLLRLPALRSIGLKCLEHLFFFKLIGDTPIDTFLMEMLETPLQIT | 0.0107
